# Data as given in article PMC13254101.
# Columns and labels:
# [1] = molecular target: CrAPE1_(C247S), recombinant soluble domain of Chlamydomonas APE1 with C247S (Chlamydomonas reinhardtii); assay: SEC-MALS
# [2] = molecular target: CrAPE1_(C128S), recombinant soluble domain of Chlamydomonas APE1 with C128S (Chlamydomonas reinhardtii); assay: SEC-MALS
Substance,stoichiometry N [1],stoichiometry N [2]
"CrAPE1_(C247S), recombinant soluble domain of Chlamydomonas APE1 with C247S (domain or fragment)",2,
"CrAPE1_(C128S), recombinant soluble domain of Chlamydomonas APE1 with C128S (domain or fragment)",,2
